From US20120301472A1 (DUKE UNIVERSITY, published 2012)
Numbering of substitutions follows the chain as printed. Blank lines part the entries; values can stand above or below the binder they belong to.

Assays:
[1] = target: T1, native human CD22 (hCD22) (human, UniProt P20273 20-847); assay: hybridoma screen on CD22-transfected mouse L cells
T1 construct: On Raji and Ramos Burkitt lymphoma cells (Scatchard analysis, flow cytometry) and on mouse L cells transfected with full-length CD22 cDNA (hybridoma screen)
T1 sequence (P20273 other isoform, or with tags, fused parts or gaps limits assumed): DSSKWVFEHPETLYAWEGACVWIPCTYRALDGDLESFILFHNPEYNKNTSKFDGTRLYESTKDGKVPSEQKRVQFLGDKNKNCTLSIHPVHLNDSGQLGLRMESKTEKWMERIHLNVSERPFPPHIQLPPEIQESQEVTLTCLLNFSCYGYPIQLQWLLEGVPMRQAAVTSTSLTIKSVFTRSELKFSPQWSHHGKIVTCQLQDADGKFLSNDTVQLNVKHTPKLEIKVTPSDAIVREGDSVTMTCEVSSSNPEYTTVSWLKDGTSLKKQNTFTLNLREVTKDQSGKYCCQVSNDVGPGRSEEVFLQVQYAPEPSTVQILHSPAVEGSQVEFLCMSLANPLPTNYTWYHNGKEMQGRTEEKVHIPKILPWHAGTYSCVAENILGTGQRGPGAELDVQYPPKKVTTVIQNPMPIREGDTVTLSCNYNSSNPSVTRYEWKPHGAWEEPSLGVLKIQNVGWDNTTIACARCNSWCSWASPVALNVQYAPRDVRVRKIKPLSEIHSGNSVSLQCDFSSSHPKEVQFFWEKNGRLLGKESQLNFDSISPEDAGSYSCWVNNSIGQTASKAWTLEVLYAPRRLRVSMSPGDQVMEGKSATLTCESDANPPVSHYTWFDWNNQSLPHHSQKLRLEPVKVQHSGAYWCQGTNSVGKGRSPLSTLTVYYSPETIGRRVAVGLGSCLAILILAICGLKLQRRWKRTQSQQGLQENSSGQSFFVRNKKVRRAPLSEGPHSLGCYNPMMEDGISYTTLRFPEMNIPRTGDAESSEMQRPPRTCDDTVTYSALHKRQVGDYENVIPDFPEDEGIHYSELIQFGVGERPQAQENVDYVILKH
Source text: Monoclonal antibodies (mAbs) HB22-7 (IgG2b), HB22-23 (IgG2a), HB22-33 (IgM), HB22-5 (IgG2a), HB22-13 (IgG2a), HB22-22 (IgA), and HB22-196 were produced according to the method of Engel et al., J Immunol 15:4710 (1993) and U.S. Pat. No. 5,484,892. See, also Tuscano et al, Blood 94:1382-1392 (1999). However, other methods may be used. Briefly, the HB22 mAbs were produced via hybridoma techniques using a mouse pre-B cell line 300.19, stably transfected with full length CD22 cDNA, as the immunogen. More specifically, thirty-three mAbs reactive with CD22 were generated by the fusion of NS-1 myeloma cell with spleen cells from Balb/c mice immunized three times with a mouse pre-B cell line, 300.19, stably transfected with a full-length CD22 cDNA. Hybridomas producing mAb reactive with mouse L cells transfected with CD22 cDNA, but not with untransfected cells, were cloned twice and used to generate supernatant or ascites fluid. mAb isotypes were determined using the Mouse Monoclonal Antibody Isotyping Kit (Amersham, Arlington Heights, Ill.). IgGmAb were purified using the Affi-Gel Protein A MAPS II Kit (Bio-Rad, Richmond, Calif.).

[2] = target: T1, native human CD22 (hCD22); assay: Scatchard analysis, Raji against Ramos cells
Experimental: Cell lines and Scatchard Analysis. Raji and Ramos Burkitt lymphoma, cell lines were purchased from American Type Culture Collection (ATCC, Manassas, Va.). Both cell lines stained for CD22 expression by flow cytometric methods utilizing the HB22-7 mAb, as described previously (Tuscano et al., supra). The cell lines were maintained in RPMI 1640 supplemented with 10% fetal calf serum at 0.5 times. 10⁶ cells/ml. A Scatchard analysis using Raji and Ramos cells was performed as described previously (Scatchard, G., Ann. of NY Acad Sci. 51:660 (1947)). Briefly, HB22-7 was labeled with ¹²⁵ I by the chloramine T method (specific activity of […]). A competitive binding assay was performed utilizing serially diluted, unlabeled HB22-7.
Scatchard analysis was utilized to assess the binding affinity of HB22-7 and the number of CD22 receptors on Ramos and Raji cells. The cells were assayed for maximum, binding percentage (Bmax), disassociation constant (Ka) and number of antibodies bound per cell. The results shown in Table 1 are the average of two experiments.

- binding result [1]: binds
B1: anti-CD22 monoclonal antibody HB22-33 (antibody, V domains shown)
VH: EVQLQESGPGLVKPSQSLSLTCSVTGYSITSGYYWNWIRQFPGNKLEWMGYIRYDGSNNYNPSLKNRISITRDTSKNQFFLKLNSVTTEDTATYYCARGGITVAMDYWGQGTSVTVSS
VL: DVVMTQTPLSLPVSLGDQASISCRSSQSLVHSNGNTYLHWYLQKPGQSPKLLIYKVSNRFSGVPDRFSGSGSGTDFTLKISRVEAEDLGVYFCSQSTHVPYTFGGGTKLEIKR

- binding result [1]: binds
B2: anti-CD22 monoclonal antibody HB22-5 (antibody, V domains shown)
VH: EVQLQESGPELVKPGASMKISCKASGYSFTDYTMNWVKQSHGKNLEWIGLLHPFNGGTSYNQKFKGKATLSVDKSSSTAFMELLSLTSEDSAVYFCARGTGRNYAMDYWGQGTSVTVSS
VL: SIVMTQTPKFLLVSTGDRVTITCKASQTVTNDLAWYQQKPGQSPKLLIYYASNRYTGVPDRFTGSGYGTDFTFTINTVQAEDLAVYFCQQDYSSPLTFGAGTKLELKR

- binding result [1]: binds
B3: anti-CD22 monoclonal antibody HB22-13 (antibody, V domains shown)
VH: EVQLQESGGGLVQPGGSLRLSCATSGFTFIDYYMNWVRQPPGKALEWLGFIKNKFNGYTTEYNTSVKGRFTISRDNSQSILYLQMNTLRAEDSATYYCARGLGRSYAMDYWGQGTSVTVSS
VL: B2 VL with T15A, T20S, T28S, L33V, A34T, Y50F, N76S

- fold increase in Ka, Raji cells versus Ramos cells [2]: 2 fold
- fold increase in antibodies bound per cell and Bmax, Raji cells versus Ramos cells [2]: ~2.5 fold
B4: anti-CD22 monoclonal antibody HB22-7 (antibody, V domains shown)
VH: EVQLQESGPGLVAPSQSLSITCTVSGFSLSDYGVNWVRQIPGKGLEWLGIIWGDGRTDYNSALKSRLNISKDNSKSQVFLKMNSLKADDTARYYCARAPGNRAMEYWGQGTSVTVSS
VL: B2 VL with T15A, V19I, I21L, T28S, L33V, N76S, S93R, L96W, A100G, L106I
notes: Labelled with 125I for the Scatchard assay; also called HB11347; anti-CD22 mAb
